The text below walks through data of the supplement of paper PMC7877785.

± gives the uncertainty stated by the source.

The data set can be described thus: self-splicing fitness, log relative to wild type (ln ratio); higher = more splicing; Tetrahymena group I intron in knt gene, E. coli kanamycin selection, DiMSum; sequences stand for … in CUCUCU…GGAGGGAAAAGUUAUCAGGCAUGCACCUGGUAGCUAGUCUUUAAACCAAUAGAUUGCAUCGGUUUAAAAGGCAAGACCGUCAAAUUGCGGGAAAGGGGUCAACAGCCGUUCAGUACCAAGUCUCAGGGGAAACUUUGAGAUGGCCUUGCAAAGGGUAUGGUAAUAAGCUGACGGACAUGGUCCUAACCACGCAGCCAAGUCCUAAGUCAACAGAUCUUCUGUUGAUAUGGAUGCAGUUCACAGACUAAAUGUCGGUCGGGGAAGAUGUAUUCUUCUCAUAAGAUAUAGUCGGACCUCUCCUUAAUGGGAGCUAGCGGAUGAAGUGAUGCAACACUGGAGCCGCUGGGAACUAAUUUGUAUGCGAAAGUAUAUUGAUUAGUUUUGGAGUACUCGUGGUCG
Summed up:
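Colonies from six replicate transformations of E. coli BL21(DE3) were pooled and amplicon-sequenced on an Illumina HiSeq 2500. The library placed an intron with all eight P1ex-region nucleotides randomised inside the knt kanamycin-resistance gene on pET-22b(+), and cells grew overnight at 37°C or 30°C on LB agar with or without 25 μg/mL kanamycin (plus 100 μg/mL carbenicillin, 50 μM IPTG, 0.2% rhamnose). Fitness is the DiMSum error-weighted combination of wild-type-normalised replicate fold changes, kanamycin versus none.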

Take CGUUAGCAAUAUUACGGAGG: the “self-splicing fitness (ln)” value was -1.43 ± 0.12 (30 °C) and -1.01 ± 0.11 (37 °C).
For CGUUAGCAAUAUUACGGCGG, in that order: -0.628 ± 0.1 and -0.396 ± 0.12.
For CGUUAGCAAUAUUACGGGAC, in that order: -2.68 ± 0.34 and -3.7 ± 0.39.
For CGUUAGCAAUAUUACGGUAU, in that order: -3.23 ± 0.22 and -2.2 ± 0.22.
Regarding CGUUAGCAAUAUUACGGUCU, the “self-splicing fitness (ln)” value was -1.56 ± 0.18 (30 °C) and -1.22 ± 0.16 (37 °C).
Take CGUUAGCAAUAUUACGGUGG: the “self-splicing fitness (ln)” value (30 °C) was -0.853 ± 0.056 and the “self-splicing fitness (ln)” value (37 °C) is -0.115 ± 0.079.
CGUUAGCAAUAUUACGUAGC: the “self-splicing fitness (ln)” value (30 °C) was -3.37 ± 0.22 and the “self-splicing fitness (ln)” value (37 °C) was -2.68 ± 0.25.
Regarding CGUUAGCAAUAUUACGUCAG, the “self-splicing fitness (ln)” value is, setting by setting: (30 °C) -0.851 ± 0.13; (37 °C) 0.0149 ± 0.14.
For CGUUAGCAAUAUUACGUCAU, the “self-splicing fitness (ln)” value is -2.58 ± 0.21 (30 °C) and -2.85 ± 0.3 (37 °C).
Regarding CGUUAGCAAUAUUACGUCCG, the “self-splicing fitness (ln)” value runs as follows: (30 °C) -0.128 ± 0.18; (37 °C) -0.407 ± 0.2.
Take CGUUAGCAAUAUUACGUCUU: the “self-splicing fitness (ln)” value is -4.03 ± 0.26 (30 °C) and -1.29 ± 0.099 (37 °C).
Regarding CGUUAGCAAUAUUACGUGUC, the “self-splicing fitness (ln)” value reads like this: (30 °C) -4.28 ± 0.37; (37 °C) -2.18 ± 0.18.
On to CGUUAGCAAUAUUACGUUCA, for which the “self-splicing fitness (ln)” value (30 °C) was -0.69 ± 0.078 and the “self-splicing fitness (ln)” value (37 °C) is -0.192 ± 0.083.
For the sequence CGUUAGCAAUAUUACGUUCG, the “self-splicing fitness (ln)” value reads like this: (30 °C) -1.38 ± 0.091; (37 °C) -1.02 ± 0.13.
For CUAAAGCAAUAUUACGAAGC, the “self-splicing fitness (ln)” value (37 °C) was -2.06 ± 0.42.
On to CUAAAGCAAUAUUACGAAUG, for which the “self-splicing fitness (ln)” value is, setting by setting: (30 °C) 0.281 ± 0.067; (37 °C) 0.497 ± 0.088.
For CUAAAGCAAUAUUACGACUU, in that order: -3.45 ± 0.2 and -3.47 ± 0.39.
Take CUAAAGCAAUAUUACGCCAC: the “self-splicing fitness (ln)” value (30 °C) was -2.89 ± 0.49.
Turning to CUAAAGCAAUAUUACGCGCC, the “self-splicing fitness (ln)” value reads like this: (30 °C) -2.84 ± 0.23; (37 °C) -2.6 ± 0.4.
For CUAAAGCAAUAUUACGCGCG, in that order: 0.227 ± 0.072 and -0.176 ± 0.095.
On to CUAAAGCAAUAUUACGCUUG, for which the “self-splicing fitness (ln)” value (30 °C) was -2.8 ± 0.15 and the “self-splicing fitness (ln)” value (37 °C) was -1.58 ± 0.17.
As for CUAAAGCAAUAUUACGGAUG, the “self-splicing fitness (ln)” value was -0.152 ± 0.049 (30 °C) and -0.202 ± 0.069 (37 °C).
For CUAAAGCAAUAUUACGGCCU, in that order: -3.01 ± 0.15 and -2.5 ± 0.28.
For CUAAAGCAAUAUUACGGGAA, in that order: -3.28 ± 0.2 and -2.1 ± 0.17.
For CUAAAGCAAUAUUACGGGGG, in that order: -1.87 ± 0.13 and -1.15 ± 0.13.
With CUAAAGCAAUAUUACGGGGU, the “self-splicing fitness (ln)” value runs as follows: (30 °C) -3.19 ± 0.14; (37 °C) -2.94 ± 0.17.
For CUAAAGCAAUAUUACGGUAG, in that order: -0.409 ± 0.043 and -0.0448 ± 0.059.
For CUAAAGCAAUAUUACGGUCG, in that order: 0.0851 ± 0.065 and 0.151 ± 0.086.
Turning to CUAAAGCAAUAUUACGGUUG, the “self-splicing fitness (ln)” value was -0.57 ± 0.056 (30 °C) and -0.138 ± 0.081 (37 °C).
Take CUAAAGCAAUAUUACGUAUA: the “self-splicing fitness (ln)” value reads like this: (30 °C) -3.23 ± 0.14; (37 °C) -3.09 ± 0.28.
For CUAAAGCAAUAUUACGUCAG, in that order: -0.715 ± 0.064 and 0.333 ± 0.1.
For CUAAAGCAAUAUUACGUGGC, in that order: -2.9 ± 0.12 and -2.05 ± 0.15.
As for CUACAGCAAUAUUACGAAGA, the “self-splicing fitness (ln)” value by setting is: (30 °C) -3.21 ± 0.45; (37 °C) -2.56 ± 0.41.
For CUACAGCAAUAUUACGAAUU, in that order: -3.04 ± 0.14 and -2.94 ± 0.24.
For CUACAGCAAUAUUACGACUA, in that order: -2.2 ± 0.23 and -2.38 ± 0.35.
For CUACAGCAAUAUUACGACUU, in that order: -3.83 ± 0.32 and -2.81 ± 0.35.
In the case of CUACAGCAAUAUUACGAGAU, the “self-splicing fitness (ln)” value reads like this: (30 °C) -4.21 ± 0.37; (37 °C) -2.96 ± 0.28.
For CUACAGCAAUAUUACGAGCC, in that order: -2.24 ± 0.24 and -1.88 ± 0.31.
